# According to publication PMC3764422, “A model of yeast glycolysis based on a consistent kinetic characterisation of all its enzymes” (Febs Letters, 2013):
# T1: phosphofructokinase beta subunit Pfk2p (S. cerevisiae, UniProt P16862 1-959)
# T1 sequence (looked up): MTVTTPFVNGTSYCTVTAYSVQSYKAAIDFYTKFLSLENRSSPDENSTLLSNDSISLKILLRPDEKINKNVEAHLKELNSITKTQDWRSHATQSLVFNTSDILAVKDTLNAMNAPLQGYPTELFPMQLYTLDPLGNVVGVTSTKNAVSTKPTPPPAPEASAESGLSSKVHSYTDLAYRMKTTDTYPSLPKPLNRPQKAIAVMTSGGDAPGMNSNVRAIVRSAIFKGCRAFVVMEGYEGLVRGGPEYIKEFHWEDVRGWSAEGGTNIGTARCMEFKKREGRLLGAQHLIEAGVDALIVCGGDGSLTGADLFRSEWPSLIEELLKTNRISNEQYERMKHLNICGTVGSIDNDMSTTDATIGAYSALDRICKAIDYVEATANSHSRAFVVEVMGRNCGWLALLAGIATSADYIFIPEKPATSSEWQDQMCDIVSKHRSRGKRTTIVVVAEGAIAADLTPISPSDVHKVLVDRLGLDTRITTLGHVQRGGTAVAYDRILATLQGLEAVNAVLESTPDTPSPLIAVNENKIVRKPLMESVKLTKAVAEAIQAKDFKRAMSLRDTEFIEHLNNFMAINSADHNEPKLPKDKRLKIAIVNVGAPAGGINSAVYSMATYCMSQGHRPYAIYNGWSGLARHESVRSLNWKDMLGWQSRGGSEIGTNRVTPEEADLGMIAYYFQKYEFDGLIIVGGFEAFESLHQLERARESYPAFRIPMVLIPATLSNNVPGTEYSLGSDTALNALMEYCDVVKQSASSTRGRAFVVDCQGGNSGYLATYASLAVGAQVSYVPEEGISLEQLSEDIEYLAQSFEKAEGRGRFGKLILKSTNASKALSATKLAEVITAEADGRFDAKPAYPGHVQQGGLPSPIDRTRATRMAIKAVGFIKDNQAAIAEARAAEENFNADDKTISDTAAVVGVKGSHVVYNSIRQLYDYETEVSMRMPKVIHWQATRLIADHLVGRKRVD
# B1: phosphofructokinase alpha subunit Pfk1p (enzyme, S. cerevisiae, UniProt P16861 1-987, looked up)
# chain: MQSQDSCYGVAFRSIITNDEALFKKTIHFYHTLGFATVKDFNKFKHGENSLLSSGTSQDSLREVWLESFKLSEVDASGFRIPQQEATNKAQSQGALLKIRLVMSAPIDETFDTNETATITYFSTDLNKIVEKFPKQAEKLSDTLVFLKDPMGNNITFSGLANATDSAPTSKDAFLEATSEDEIISRASSDASDLLRQTLGSSQKKKKIAVMTSGGDSPGMNAAVRAVVRTGIHFGCDVFAVYEGYEGLLRGGKYLKKMAWEDVRGWLSEGGTLIGTARSMEFRKREGRRQAAGNLISQGIDALVVCGGDGSLTGADLFRHEWPSLVDELVAEGRFTKEEVAPYKNLSIVGLVGSIDNDMSGTDSTIGAYSALERICEMVDYIDATAKSHSRAFVVEVMGRHCGWLALMAGIATGADYIFIPERAVPHGKWQDELKEVCQRHRSKGRRNNTIIVAEGALDDQLNPVTANDVKDALIELGLDTKVTILGHVQRGGTAVAHDRWLATLQGVDAVKAVLEFTPETPSPLIGILENKIIRMPLVESVKLTKSVATAIENKDFDKAISLRDTEFIELYENFLSTTVKDDGSELLPVSDRLNIGIVHVGAPSAALNAATRAATLYCLSHGHKPYAIMNGFSGLIQTGEVKELSWIDVENWHNLGGSEIGTNRSVASEDLGTIAYYFQKNKLDGLIILGGFEGFRSLKQLRDGRTQHPIFNIPMCLIPATVSNNVPGTEYSLGVDTCLNALVNYTDDIKQSASATRRRVFVCEVQGGHSGYIASFTGLITGAVSVYTPEKKIDLASIREDITLLKENFRHDKGENRNGKLLVRNEQASSVYSTQLLADIISEASKGKFGVRTAIPGHVQQGGVPSSKDRVTASRFAVKCIKFIEQWNKKNEASPNTDAKVLRFKFDTHGEKVPTVEHEDDSAAVICVNGSHVSFKPIANLWENETNVELRKGFEVHWAEYNKIGDILSGRLKLRAEVAALAAENK
# Target: T1, phosphofructokinase beta subunit Pfk2p
# Assay: cell-based or functional assay
binder,measurement,value
B1,"kcat of phosphofructokinase, Pfk1p:Pfk2p co-expressed and co-purified (spectrophotometric coupled assay, 30 °C)",210 s⁻¹
